Measurements taken from IntAct's records for PubMed 25910212.

B1: U4/U6 small nuclear ribonucleoprotein Prp31 (Homo sapiens), Q8WWY3 (parent)
chain: MSLADELLADLEEAAEEEEGGSYGEEEEEPAIEDVQEETQLDLSGDSVKTIAKLWDSKMFAEIMMKIEEYISKQAKASEVMGPVEAAPEYRVIVDANNLTVEIENELNIIHKFIRDKYSKRFPELESLVPNALDYIRTVKELGNSLDKCKNNENLQQILTNATIMVVSVTASTTQGQQLSEEELERLEEACDMALELNASKHRIYEYVESRMSFIAPNLSIIIGASTAAKIMGVAGGLTNLSKMPACNIMLLGAQRKTLSGFSSTSVLPHTGYIYHSDIVQSLPPDLRRKAARLVAAKCTLAARVDSFHESTEGKVGYELKDEIERKFDKWQEPPPVKQVKPLPAPLDGQRKKRGGRRYRKMKERLGLTEIRKQANRMSFGEIEEDAYQEDLGFSLGHLGKSGSGRVRQTQVNEATKARISKTLQRTLQKQSVVYGGKSTIRDRSSGTASSVAFTPLQGLEIVNPQAAEKKVAEANQKYFSSMAEFLKVKGEKSGLMST
B2: ATP synthase mitochondrial F1 complex assembly factor 2 (Homo sapiens), Q8N5M1 (parent)
chain: MWRSCLRLRDGGRRLLNRPAGGPSASMSPGPTIPSPARAYAPPTERKRFYQNVSITQGEGGFEINLDHRKLKTPQAKLFTVPSEALAIAVATEWDSQQDTIKYYTMHLTTLCNTSLDNPTQRNKDQLIRAAVKFLDTDTICYRVEEPETLVELQRNEWDPIIEWAEKRYGVEISSSTSIMGPSIPAKTREVLVSHLASYNTWALQGIEFVAAQLKSMVLTLGLIDLRLTVEQAVLLSRLEEEYQIQKWGNIEWAHDYELQELRARTAAGTLFIHLCSESTTVKHKLLKE
partner: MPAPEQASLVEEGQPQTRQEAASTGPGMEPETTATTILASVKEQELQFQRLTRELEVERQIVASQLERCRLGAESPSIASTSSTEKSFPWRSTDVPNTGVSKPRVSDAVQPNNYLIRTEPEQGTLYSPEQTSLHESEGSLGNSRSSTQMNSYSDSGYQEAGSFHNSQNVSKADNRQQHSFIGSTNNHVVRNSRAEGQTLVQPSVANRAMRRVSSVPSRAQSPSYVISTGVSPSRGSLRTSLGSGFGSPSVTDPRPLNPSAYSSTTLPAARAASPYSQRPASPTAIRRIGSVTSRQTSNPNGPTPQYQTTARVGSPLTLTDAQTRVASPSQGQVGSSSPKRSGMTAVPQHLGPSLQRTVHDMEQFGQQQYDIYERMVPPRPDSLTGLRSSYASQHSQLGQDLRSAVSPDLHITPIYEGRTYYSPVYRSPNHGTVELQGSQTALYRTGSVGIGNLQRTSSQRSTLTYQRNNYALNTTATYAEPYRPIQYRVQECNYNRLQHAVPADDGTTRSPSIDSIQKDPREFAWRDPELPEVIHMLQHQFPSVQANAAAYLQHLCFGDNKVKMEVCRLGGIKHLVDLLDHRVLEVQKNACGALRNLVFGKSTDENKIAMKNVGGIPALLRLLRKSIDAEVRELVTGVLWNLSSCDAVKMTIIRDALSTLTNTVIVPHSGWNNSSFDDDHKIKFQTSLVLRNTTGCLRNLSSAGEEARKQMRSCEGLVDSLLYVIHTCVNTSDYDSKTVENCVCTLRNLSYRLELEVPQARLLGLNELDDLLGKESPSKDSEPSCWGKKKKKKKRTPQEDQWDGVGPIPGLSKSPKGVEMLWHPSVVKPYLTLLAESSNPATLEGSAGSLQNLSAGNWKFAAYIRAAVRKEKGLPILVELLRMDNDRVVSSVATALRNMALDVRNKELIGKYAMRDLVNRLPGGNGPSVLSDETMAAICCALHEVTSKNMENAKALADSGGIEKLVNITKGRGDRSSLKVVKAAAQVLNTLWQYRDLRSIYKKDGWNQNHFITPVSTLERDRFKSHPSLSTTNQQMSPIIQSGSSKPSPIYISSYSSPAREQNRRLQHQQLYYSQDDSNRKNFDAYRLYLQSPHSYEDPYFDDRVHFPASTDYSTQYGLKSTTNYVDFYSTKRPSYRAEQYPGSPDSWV
B3: U4/U6 small nuclear ribonucleoprotein Prp31 (Homo sapiens), Q8WWY3 (parent)
chain: B1 chain
partner: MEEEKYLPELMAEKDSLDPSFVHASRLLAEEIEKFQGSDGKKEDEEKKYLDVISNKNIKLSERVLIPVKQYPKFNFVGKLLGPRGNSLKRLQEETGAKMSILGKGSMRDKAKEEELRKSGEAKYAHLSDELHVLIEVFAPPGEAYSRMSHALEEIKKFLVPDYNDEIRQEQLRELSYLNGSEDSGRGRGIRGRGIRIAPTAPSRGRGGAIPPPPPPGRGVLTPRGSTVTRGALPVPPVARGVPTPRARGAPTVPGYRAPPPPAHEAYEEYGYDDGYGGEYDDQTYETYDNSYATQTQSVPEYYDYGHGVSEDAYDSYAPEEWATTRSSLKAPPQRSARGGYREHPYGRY
B4: EF-hand domain-containing protein 1 (Homo sapiens), Q5JVL4 (parent)
chain: MVSNPVHGLPFLPGTSFKDSTKTAFHRSQTLSYRNGYAIVRRPTVGIGGDRLQFNQLSQAELDELASKAPVLTYGQPKQAPPADFIPAHVAFDKKVLKFDAYFQEDVPMSTEEQYRIRQVNIYYYLEDDSMSVIEPVVENSGILQGKLIKRQRLAKNDRGDHYHWKDLNRGINITIYGKTFRVVDCDQFTQVFLESQGIELNPPEKMALDPYTELRKQPLRKYVTPSDFDQLKQFLTFDKQVLRFYAIWDDTDSMYGECRTYIIHYYLMDDTVEIREVHERNDGRDPFPLLMNRQRVPKVLVENAKNFPQCVLEISDQEVLEWYTAKDFIVGKSLTILGRTFFIYDCDPFTRRYYKEKFGITDLPRIDVSKREPPPVKQELPPYNGFGLVEDSAQNCFALIPKAPKKDVIKMLVNDNKVLRYLAVLESPIPEDKDRRFVFSYFLATDMISIFEPPVRNSGIIGGKYLGRTKVVKPYSTVDNPVYYGPSDFFIGAVIEVFGHRFIILDTDEYVLKYMESNAAQYSPEALASIQNHVRKREAPAPEAESKQTEKDPGVQELEALIDTIQKQLKDHSCKDNIREAFQIYDKEASGYVDRDMFFKICESLNVPVDDSLVKELIRMCSHGEGKINYYNFVRAFSN

Variants of: B1
Settings: with pnma1_human PNMA1, Q8ND90

| effect of a mutation on the interaction | Variant |
| --- | --- |
| with no effect | L107V |

Variants of: B1
Settings: with lzts2_human LZTS2, Q9BRK4

| effect of a mutation on the interaction | Variant |
| --- | --- |
| with no effect | L107V |

Variants of: B1
Settings: with pak5_human PAK5, Q9P286

| effect of a mutation on the interaction | Variant |
| --- | --- |
| with no effect | L107V |

Variants of: B1
Settings: with myome_human PDE4DIP

| effect of a mutation on the interaction | Variant |
| --- | --- |
| with no effect | L107V |

Variants of: B1
Settings: with tsg10_human TSGA10, Q9BZW7

| effect of a mutation on the interaction | Variant |
| --- | --- |
| with no effect | L107V |

Variants of: B1
Settings: with ppip1_human PSTPIP1, O43586

| effect of a mutation on the interaction | Variant |
| --- | --- |
| with no effect | L107V |

Variants of: B1
Settings: with fbln4_human EFEMP2, O95967

| effect of a mutation on the interaction | Variant |
| --- | --- |
| with no effect | L107V |

Variants of: B1
Settings: with ldoc1_human LDOC1, O95751
Sequence of ldoc1_human LDOC1, O95751 (O95751 whole entry): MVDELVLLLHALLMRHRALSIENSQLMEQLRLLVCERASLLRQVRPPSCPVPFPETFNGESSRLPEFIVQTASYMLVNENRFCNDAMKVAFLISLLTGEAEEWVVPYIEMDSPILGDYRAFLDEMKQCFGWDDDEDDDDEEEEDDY

| effect of a mutation on the interaction | Variant |
| --- | --- |
| with no effect | L107V |

Variants of: B1
Settings: with znf24_human ZNF24, P17028
Sequence of znf24_human ZNF24, P17028 (P17028 whole entry): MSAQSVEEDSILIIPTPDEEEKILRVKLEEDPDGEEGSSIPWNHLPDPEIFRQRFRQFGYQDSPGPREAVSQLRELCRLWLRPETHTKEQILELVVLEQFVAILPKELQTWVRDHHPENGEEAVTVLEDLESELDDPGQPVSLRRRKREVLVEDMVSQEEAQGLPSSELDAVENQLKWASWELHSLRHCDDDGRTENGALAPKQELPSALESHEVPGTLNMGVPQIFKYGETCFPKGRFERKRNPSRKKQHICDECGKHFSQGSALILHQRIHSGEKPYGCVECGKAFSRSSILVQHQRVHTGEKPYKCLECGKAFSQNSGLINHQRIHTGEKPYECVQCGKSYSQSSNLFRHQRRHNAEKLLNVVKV

| effect of a mutation on the interaction | Variant |
| --- | --- |
| with no effect | L107V |

Variants of: B1
Settings: with KRT15, P19012
Target sequence in this assay (P19012 whole entry): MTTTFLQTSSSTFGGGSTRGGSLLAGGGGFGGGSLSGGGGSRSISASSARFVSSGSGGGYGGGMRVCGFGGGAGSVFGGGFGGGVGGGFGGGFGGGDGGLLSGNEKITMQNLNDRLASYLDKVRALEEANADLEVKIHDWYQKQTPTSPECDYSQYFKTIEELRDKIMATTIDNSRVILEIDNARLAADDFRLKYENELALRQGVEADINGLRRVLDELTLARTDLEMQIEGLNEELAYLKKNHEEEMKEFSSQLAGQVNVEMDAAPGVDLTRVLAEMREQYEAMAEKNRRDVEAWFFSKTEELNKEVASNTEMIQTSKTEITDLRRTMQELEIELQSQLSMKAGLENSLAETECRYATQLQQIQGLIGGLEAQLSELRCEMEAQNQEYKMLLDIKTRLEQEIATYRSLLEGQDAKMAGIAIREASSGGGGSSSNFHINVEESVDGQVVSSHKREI

| effect of a mutation on the interaction | Variant |
| --- | --- |
| with no effect | L107V |

Variants of: B1
Settings: with rbmx_human RBMX

| effect of a mutation on the interaction | Variant |
| --- | --- |
| with no effect | L107V |

Variants of: B1
Settings: with HNRNPK

| effect of a mutation on the interaction | Variant |
| --- | --- |
| with no effect | L107V |

Variants of: B1
Settings: with mdfi_human MDFI

| effect of a mutation on the interaction | Variant |
| --- | --- |
| with no effect | L107V |

Variants of: B1
Settings: with ZNF250, P15622-3

| effect of a mutation on the interaction | Variant |
| --- | --- |
| with no effect | L107V |

Variants of: B1
Settings: with zn587_human ZNF587, Q96SQ5

| effect of a mutation on the interaction | Variant |
| --- | --- |
| with no effect | L107V |

Variants of: B1
Settings: with KRT40, Q6A162

| effect of a mutation on the interaction | Variant |
| --- | --- |
| with no effect | L107V |

Variants of: B1
Settings: with nt2na_human NOTCH2NLA

| effect of a mutation on the interaction | Variant |
| --- | --- |
| with no effect | L107V |

Variants of: B1
Settings: with tfp11_human TFIP11, Q9UBB9
Sequence of tfp11_human TFIP11, Q9UBB9 (Q9UBB9 whole entry): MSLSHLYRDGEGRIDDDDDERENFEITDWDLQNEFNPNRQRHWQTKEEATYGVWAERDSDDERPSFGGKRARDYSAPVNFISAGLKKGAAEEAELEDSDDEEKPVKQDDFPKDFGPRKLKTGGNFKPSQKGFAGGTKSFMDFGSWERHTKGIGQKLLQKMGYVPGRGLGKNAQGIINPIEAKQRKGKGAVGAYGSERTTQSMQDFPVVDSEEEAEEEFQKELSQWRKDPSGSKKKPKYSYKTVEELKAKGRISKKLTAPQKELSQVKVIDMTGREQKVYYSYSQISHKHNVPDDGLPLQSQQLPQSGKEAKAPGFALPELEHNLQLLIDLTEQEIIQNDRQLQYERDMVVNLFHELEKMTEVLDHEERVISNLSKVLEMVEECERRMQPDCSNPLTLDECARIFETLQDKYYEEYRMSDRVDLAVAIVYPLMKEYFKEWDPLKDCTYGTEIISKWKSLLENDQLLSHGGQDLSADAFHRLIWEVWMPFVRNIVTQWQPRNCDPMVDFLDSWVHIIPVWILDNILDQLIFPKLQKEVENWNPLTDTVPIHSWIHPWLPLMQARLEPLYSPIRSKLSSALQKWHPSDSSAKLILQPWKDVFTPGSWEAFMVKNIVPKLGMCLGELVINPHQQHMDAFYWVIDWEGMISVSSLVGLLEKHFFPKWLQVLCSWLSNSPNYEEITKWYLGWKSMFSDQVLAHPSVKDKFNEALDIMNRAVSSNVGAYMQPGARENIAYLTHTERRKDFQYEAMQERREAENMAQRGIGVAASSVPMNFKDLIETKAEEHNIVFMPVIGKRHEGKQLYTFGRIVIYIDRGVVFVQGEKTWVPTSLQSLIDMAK

| effect of a mutation on the interaction | Variant |
| --- | --- |
| with no effect | L107V |

Variants of: B1
Settings: with goga2_human GOLGA2, Q08379
Target sequence in this assay (Q08379 whole entry): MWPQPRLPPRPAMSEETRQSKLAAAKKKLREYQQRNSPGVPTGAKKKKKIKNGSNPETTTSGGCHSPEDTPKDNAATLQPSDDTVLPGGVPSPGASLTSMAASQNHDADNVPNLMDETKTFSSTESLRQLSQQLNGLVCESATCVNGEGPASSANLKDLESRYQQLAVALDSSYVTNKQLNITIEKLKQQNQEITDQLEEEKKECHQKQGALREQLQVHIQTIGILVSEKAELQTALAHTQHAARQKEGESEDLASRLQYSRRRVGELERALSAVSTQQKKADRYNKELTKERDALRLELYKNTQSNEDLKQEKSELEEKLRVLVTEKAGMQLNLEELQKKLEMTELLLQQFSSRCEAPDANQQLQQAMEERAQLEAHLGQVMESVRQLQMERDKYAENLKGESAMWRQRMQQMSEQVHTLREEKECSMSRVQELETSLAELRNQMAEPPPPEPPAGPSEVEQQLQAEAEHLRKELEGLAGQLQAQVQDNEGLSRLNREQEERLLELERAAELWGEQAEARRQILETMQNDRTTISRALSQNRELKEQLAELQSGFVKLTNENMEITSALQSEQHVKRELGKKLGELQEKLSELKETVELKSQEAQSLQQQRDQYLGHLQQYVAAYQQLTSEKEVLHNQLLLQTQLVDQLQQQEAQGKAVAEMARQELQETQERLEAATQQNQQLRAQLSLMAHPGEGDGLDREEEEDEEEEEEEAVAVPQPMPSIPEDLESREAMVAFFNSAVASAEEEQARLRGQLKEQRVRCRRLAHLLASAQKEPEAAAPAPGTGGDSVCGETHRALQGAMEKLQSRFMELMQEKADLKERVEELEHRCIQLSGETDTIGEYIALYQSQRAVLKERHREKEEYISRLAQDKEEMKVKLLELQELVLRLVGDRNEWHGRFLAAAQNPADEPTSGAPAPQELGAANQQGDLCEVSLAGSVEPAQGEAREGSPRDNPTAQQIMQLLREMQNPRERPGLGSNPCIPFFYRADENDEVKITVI

| effect of a mutation on the interaction | Variant |
| --- | --- |
| with no effect | L107V |

Variants of: B1
Settings: with jkip2_human JAKMIP2, Q96AA8

| effect of a mutation on the interaction | Variant |
| --- | --- |
| with no effect | L107V |

Variants of: B1
Settings: with ccd33_human CCDC33, Q8N5R6

| effect of a mutation on the interaction | Variant |
| --- | --- |
| with no effect | L107V |

Variants of: B1
Settings: with zn417_human ZNF417, Q8TAU3

| effect of a mutation on the interaction | Variant |
| --- | --- |
| with no effect | L107V |

Variants of: B1
Settings: with MTUS2, Q5JR59-3

| effect of a mutation on the interaction | Variant |
| --- | --- |
| with no effect | L107V |

Variants of: B2
Settings: with PKP4, Q99569-2

| effect of a mutation on the interaction | Variant |
| --- | --- |
| disrupting interaction strength | W94R |

Variants of: B3
Settings: with khdr2_human KHDRBS2, Q5VWX1

| effect of a mutation on the interaction | Variant |
| --- | --- |
| with no effect | L107V |

Variants of: B4
Settings: with ikzf3_human IKZF3, Q9UKT9
Sequence of ikzf3_human IKZF3, Q9UKT9 (Q9UKT9 whole entry): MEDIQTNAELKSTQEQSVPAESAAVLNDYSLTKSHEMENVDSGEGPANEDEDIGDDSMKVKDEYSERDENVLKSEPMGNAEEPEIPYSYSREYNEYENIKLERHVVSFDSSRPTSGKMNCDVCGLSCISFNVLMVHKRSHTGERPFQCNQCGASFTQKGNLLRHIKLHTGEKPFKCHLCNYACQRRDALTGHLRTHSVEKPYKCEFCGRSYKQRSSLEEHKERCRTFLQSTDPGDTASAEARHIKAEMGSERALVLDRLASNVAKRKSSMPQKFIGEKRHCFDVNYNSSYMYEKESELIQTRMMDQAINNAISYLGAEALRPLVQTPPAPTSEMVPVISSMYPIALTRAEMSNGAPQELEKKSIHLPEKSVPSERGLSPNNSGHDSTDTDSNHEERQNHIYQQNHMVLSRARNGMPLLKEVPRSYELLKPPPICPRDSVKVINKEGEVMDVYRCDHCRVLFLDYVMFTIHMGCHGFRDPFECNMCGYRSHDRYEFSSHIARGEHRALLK

| effect of a mutation on the interaction | Variant |
| --- | --- |
| disrupting interaction strength | R221H |

Variants of: B4
Settings: with kctd4_human KCTD4, Q8WVF5

| effect of a mutation on the interaction | Variant |
| --- | --- |
| disrupting interaction strength | R221H |

Variants of: B4
Settings: with rim3a_human RIMBP3, Q9UFD9
Sequence of rim3a_human RIMBP3, Q9UFD9 (Q9UFD9 whole entry): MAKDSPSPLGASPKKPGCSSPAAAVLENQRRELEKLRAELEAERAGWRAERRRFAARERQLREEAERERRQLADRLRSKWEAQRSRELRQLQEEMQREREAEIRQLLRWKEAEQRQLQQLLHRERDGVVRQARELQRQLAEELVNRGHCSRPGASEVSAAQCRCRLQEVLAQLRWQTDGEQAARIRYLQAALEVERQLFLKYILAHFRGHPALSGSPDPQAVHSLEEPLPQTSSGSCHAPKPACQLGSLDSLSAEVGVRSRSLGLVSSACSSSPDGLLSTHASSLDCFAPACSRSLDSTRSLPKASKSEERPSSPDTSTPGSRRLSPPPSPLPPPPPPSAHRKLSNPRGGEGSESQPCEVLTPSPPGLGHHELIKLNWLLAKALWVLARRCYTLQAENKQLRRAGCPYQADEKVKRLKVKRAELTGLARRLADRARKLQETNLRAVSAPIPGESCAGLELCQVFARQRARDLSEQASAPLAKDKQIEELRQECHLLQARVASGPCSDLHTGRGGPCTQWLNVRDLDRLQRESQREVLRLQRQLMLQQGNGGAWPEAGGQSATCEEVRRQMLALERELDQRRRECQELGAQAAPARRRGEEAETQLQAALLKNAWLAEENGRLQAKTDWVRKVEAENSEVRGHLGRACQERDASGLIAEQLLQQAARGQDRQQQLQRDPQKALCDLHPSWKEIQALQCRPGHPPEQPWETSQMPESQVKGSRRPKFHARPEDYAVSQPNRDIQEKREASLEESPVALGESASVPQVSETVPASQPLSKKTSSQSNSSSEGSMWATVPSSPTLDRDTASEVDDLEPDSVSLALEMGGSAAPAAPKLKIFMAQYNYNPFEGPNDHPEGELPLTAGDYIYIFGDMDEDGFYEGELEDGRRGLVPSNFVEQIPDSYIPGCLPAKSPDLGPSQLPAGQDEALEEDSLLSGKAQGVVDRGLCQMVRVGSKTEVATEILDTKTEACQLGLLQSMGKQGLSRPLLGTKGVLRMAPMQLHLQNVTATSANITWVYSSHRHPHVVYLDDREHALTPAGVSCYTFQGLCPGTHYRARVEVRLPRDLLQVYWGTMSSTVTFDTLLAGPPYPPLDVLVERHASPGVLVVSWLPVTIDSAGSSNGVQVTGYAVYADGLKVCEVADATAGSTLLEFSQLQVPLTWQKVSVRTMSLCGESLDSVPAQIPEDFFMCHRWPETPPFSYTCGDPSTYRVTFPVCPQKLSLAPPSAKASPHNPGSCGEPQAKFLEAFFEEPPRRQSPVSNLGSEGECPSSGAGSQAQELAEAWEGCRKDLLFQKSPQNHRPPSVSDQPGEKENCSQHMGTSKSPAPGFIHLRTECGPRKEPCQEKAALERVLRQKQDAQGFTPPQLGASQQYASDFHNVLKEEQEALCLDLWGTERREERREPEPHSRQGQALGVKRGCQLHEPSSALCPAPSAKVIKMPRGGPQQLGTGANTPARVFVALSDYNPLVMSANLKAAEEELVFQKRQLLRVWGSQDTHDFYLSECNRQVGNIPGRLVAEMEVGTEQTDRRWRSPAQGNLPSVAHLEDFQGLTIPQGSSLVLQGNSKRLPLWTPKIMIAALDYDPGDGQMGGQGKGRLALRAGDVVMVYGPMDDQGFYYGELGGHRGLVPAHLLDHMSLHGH

| effect of a mutation on the interaction | Variant |
| --- | --- |
| disrupting interaction strength | R221H |

Variants of: B4
Settings: with trip6_human TRIP6, Q15654

| effect of a mutation on the interaction | Variant |
| --- | --- |
| disrupting interaction strength | R221H |

Variants of: B4
Settings: with KRT15, P19012
Target sequence in this assay (P19012 whole entry): as the sequence (P19012 whole entry) above

| effect of a mutation on the interaction | Variant |
| --- | --- |
| disrupting interaction strength | R221H |

Variants of: B4
Settings: with TCF4, P15884-3

| effect of a mutation on the interaction | Variant |
| --- | --- |
| disrupting interaction strength | R221H |

Variants of: B4
Settings: with goga2_human GOLGA2, Q08379
Target sequence in this assay (Q08379 whole entry): as the sequence (Q08379 whole entry) above

| effect of a mutation on the interaction | Variant |
| --- | --- |
| disrupting interaction strength | R221H |
